Laboratory results from the nanobody polyreactivity screen of Harvey et al. (2022).

Test: yeast display, Sf9 membrane polyspecificity reagent, FACS + sequencing; frameworks hold sequencing errors
Procedure, shortened: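 Nanobodies from a synthetic yeast display library (Saccharomyces cerevisiae BJ5465), induced 36–48 hours with galactose, were stained 1 hour at 4 °C with 10% biotinylated, detergent-solubilized Sf9 membrane reagent, enriched on streptavidin microbeads, then FACS-sorted. Anti-HA (expression) and streptavidin (reagent binding) fluorescence set low and high (top ~1%) gates. Polyreactivity labels come from the gate of origin. Genes were colony-PCR amplified, MiSeq 2 × 250 sequenced and filtered by CDR length.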

Q: For “QVQLVESGLGLVQAGGSLRISCAASGLTIYYYAMGWYRQAPGKERELVAAITWRGGSTYYADSVKGRFTISRDNAKNTVYLQMNSLKPEDTAVYYCNKAYKYIRQQPYRTKRYDYWGQGTQGTVSS”, which “polyreactivity (PSR sort gate)” value is on record?
A: low polyreactivity

Q: Which “polyreactivity (PSR sort gate)” value does the source give for “QVQLVESGLGLVQAGVSLRLSCAATGLTFVYYAMGWYRPAHGKERELVAAIDWSGGTTYYADSVKGRFTISRDHAKNTVYLQMNSLKPEDTAVYYCAADVVEEDDLEFYYWGQGTQVTVSS” here?
A: high polyreactivity

Q: With “QVQLVESGRGIVQAGGSLRLSCAASGRIFYLNAMGWYRQAPGKERELVAAITRSAASTHYADSVKGRFTISRDNAKNTVYVQMNSLKPEDTAVYYCAARFWYDYRHYDYWGQGTQVTVSS” as the sequence, how does the “polyreactivity (PSR sort gate)” value read?
A: low polyreactivity

Q: For “QVQLVESGRGIVQAGGSLRLSCAASGRTFYVYTMGWYRQAPGKERELVAAITSGGSTNYADSVKGRFTISRDNAKNTLYLQMNSLKPEDTAVYYCAARVSTVFKRYYYWGQGTQVTVSS”, which “polyreactivity (PSR sort gate)” value is on record?
A: high polyreactivity

Q: With “QVQLVESGRGLDQAGGSLRISSAASGNTYKGHAMGWYRHAPGKERELVAAISWSTDSTYYADSVKGRFTISRDNAKNTVYLQMNSLKPEDTAIYYCAAYYSHLTIAWYYYWGQGTQVNVSS” as the sequence, how does the “polyreactivity (PSR sort gate)” value read?
A: low polyreactivity

Q: With “QVQLVESGRGLFQAGGSLRLSCAASGIIFKSYAMGWYRQAPGKEREFVAAISWSGGRTTYADSLKGRFTISRDNAKNTVYLPMNSLKPEDTAVYYCAAAARGKFYYWGQGTQVTVSS” as the sequence, how does the “polyreactivity (PSR sort gate)” value read?
A: high polyreactivity

Q: Which “polyreactivity (PSR sort gate)” value does the source give for “QVQLVESGRGLFQEGGSLRLSCAPSGFIFGKYAMGWYRQAPGTEREFVAAITRNGGSTYYADSVKGRVTISRDNAKNTVYLQMNSLKPDDTAVYYCNADRGYRRRTGMDDWGQVTQVTVSS” here?
A: low polyreactivity

Q: Which “polyreactivity (PSR sort gate)” value does the source give for “QVQLVESGRGLLQAGGSLRISCAASGFTFKGNAMGWYRQAPGKESELVAAITTSGGSTYYADSVKWRFTISRDNAKNTVYLQMNSLKPEDTAVYYCNAYFIYEGGWYYNAQYDYWGQGTQVTVSS” here?
A: low polyreactivity

Q: Which “polyreactivity (PSR sort gate)” value does the source give for “QVQLVESGRGLLQAGGSLRLSCASSGCIFTSYAMGWYRPAPGKVRELVAGITRGGRTYYADSVKGRFTISRDKAKNTVYLQSNSLKPEDTAVYYCAALSSRHFVFTVDYWGQATQVTVSS” here?
A: high polyreactivity

Q: For “QVQLVESGRGLVEAGGSLRLSCAASGSTFWAYVMGWSRQAPGKERELVAAITSSGGSTYYADSVKGRFTISRDYAKNTVYLQMNILKPEDTAVYYCAADYFYPYYGAMDYWGQGTQVTVSS”, which “polyreactivity (PSR sort gate)” value is on record?
A: low polyreactivity

Q: For “QVQLVESGRGLVQAGCSLRLSCASSGFIFVFNAMGRYRQAPGKERELVAAINGGDITNYAYSVKGRFTISRDNAKNTVYIQMNSLKPEDTAVYYCAADGEDSLWSGYDYDYWGLGTQVTVSS”, which “polyreactivity (PSR sort gate)” value is on record?
A: low polyreactivity

Q: With “QVQLVESGRGLVQAGCSLRLTCAASGSIFPQYAMGWYRQAPGQERELVAAITRSGGGTHYADSVKGRFTISRDNAKNTVYLQMNSLKPEDTAVYYCAKAGYRSEFEYWGQGTQVTVSS” as the sequence, how does the “polyreactivity (PSR sort gate)” value read?
A: low polyreactivity

Q: Which “polyreactivity (PSR sort gate)” value does the source give for “QVQLVESGRGLVQAGGSLRLICDASGSTFFLYGMGWYRPAPGKERELVAAITWNGGSTYYADSVKGRFTISRDNAKNTVYLQMNSLKPEDTAVYYCAADYYGYFSTPYDYWGQGTQVTVSS” here?
A: low polyreactivity

Q: For “QVQLVESGRGLVQAGGSLRLSCAASGFTFGYYAMGWYRQAPGKERELVAAITSSGGTTYYADSVKGRFTISRDNAKNTVYLQMNSLKPEDTAVYYCAAEAQYYVVDPYGYDYWGQGTQVTVSS”, which “polyreactivity (PSR sort gate)” value is on record?
A: low polyreactivity

Q: With “QVQLVESGRGLVQAGGSLRLSCAASGIIFEYYTMGWSRPAPGKERELVASITYDGDSTYYADSVKGRFTISRDNAKNTVYLQMNSLKPEDTAVYYCAAEYYYVYSSFGHFYWGQGTQVTVSS” as the sequence, how does the “polyreactivity (PSR sort gate)” value read?
A: low polyreactivity

Q: With “QVQLVESGRGLVQAGGSLRLSCAASGITFGWYAMGWYRQPPGKATELVASISSSGSTNYADSVKGRFTNSRDNAKNTVYLQMNSLKPEDTAVYYCNKDYLLRHYYIYVIEGDYWGQGTQVTVSS” as the sequence, how does the “polyreactivity (PSR sort gate)” value read?
A: low polyreactivity
